Measured values: publication PMC12225687

What was measured:
Experiment in all cases: flow cytometry on cells; PE-labelled pMHC multimer (HLA-A*02:01 with the … peptide) stained on Jurkat J1601 cells (human CD8α/β, TCRα/β CRISPR-KO) electroporated with TCR RNA, after overnight incubation; read-out % multimer+CD8+ cells, averages of two independent replicates
[1] = target: 1G4 TCR (human)
[2] = target: 1G4-c50 TCR (human)
[3] = target: 1G4-c53c50 TCR (human)

% of multimer+CD8+ Jurkat cells [1]: 90.9%
% of multimer+CD8+ Jurkat cells [2]: 99.6%
% of multimer+CD8+ Jurkat cells [3]: 99.1%
Substance: HLA-A*02:01 with the NY-ESO-1 157-165 peptide …, PE-labelled multimer (from UniProt P61769 21-119) (peptide-MHC)
